Test results from patent US20250136677A1 (ZOETIS SERVICES, published 2025).

Experiments:
[1] = biological target: T1, mutant feline IL-31 15H05 protein (Feline_IL31_15H05_mutant) (feline); assay: indirect ELISA, IL-31 protein coated
T1 sequence: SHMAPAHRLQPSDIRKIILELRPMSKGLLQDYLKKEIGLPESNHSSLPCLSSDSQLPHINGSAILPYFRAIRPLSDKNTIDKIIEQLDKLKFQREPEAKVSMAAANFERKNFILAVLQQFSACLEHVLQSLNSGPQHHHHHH

[2] = biological target: T2, equine IL-31 protein (Equine_IL31) (equine); assay: SPR (Biacore), IL-31 surface, single antibody concentration
T2 construct: Recombinant equine IL-31
T2 chain: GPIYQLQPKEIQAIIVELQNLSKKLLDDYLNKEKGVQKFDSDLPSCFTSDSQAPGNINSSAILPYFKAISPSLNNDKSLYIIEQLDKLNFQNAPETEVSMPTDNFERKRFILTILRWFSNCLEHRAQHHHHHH
Protocol: (§1) For the indirect ELISA method, antibody binding to wildtype and feline IL-31 15H05 mutant proteins was assessed. All nine canine monoclonal antibodies (ZIL1, ZIL8, ZIL8, ZIL11, ZIL69, ZIL94, ZIL154, ZIL159, and ZIL171) were capable of binding to wildtype feline IL-31 and binding was impacted by mutations in the mAb 15H05 epitope region confirming the correct binding phenotype determined during the initial screening used to identify them. In comparison, the 11E12 antibody bound to the wild-type feline IL-31 and its binding was not impacted by the mutations in the 15H05 epitope region as evidenced by the data in FIG. 4. To confirm binding, biacore analysis was performed using canine, feline, equine, human, feline 15H05 mutant, and feline 11E12 mutant IL-31 proteins as surfaces and a single test concentration of antibody. Similar to ELISA observations, all antibodies tested bound to wildtype feline IL-31. In agreement with the data described above in this section, mouse antibodies 11E12 and 15H05 both bound to canine and feline IL-31 surfaces. Three additional antibodies where shown to have this dual binding property, ZIL69 (partial canine binding), ZIL94, and ZIL159. From this group of nine fully canine antibodies, only ZIL1 and ZIL9 cross-reacted with equine IL-31. Of note, antibody 15H05 was the only one of all assayed herein that bound to canine, feline, and equine IL-31 indicating some level of epitope conservation across the three species. In contrast, none of the antibodies described herein bound to human IL-31. Additional biacore surfaces were used to verify ELISA observations showing differential binding of antibodies to wildtype feline IL-31 and two proteins with mutations in the 15H05 (15H05 mutant) or 11E12 (11E12 mutant) epitopes.

[3] = biological target: T3, canine IL-31 protein (Canine_IL31) (canine); assay: SPR (Biacore), IL-31 on chip, 1:1 fit
T3 chain: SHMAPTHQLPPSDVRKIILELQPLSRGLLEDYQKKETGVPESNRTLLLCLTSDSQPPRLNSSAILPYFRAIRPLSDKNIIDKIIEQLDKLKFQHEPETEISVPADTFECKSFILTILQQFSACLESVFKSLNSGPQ

[4] = biological target: T3, canine IL-31 protein (Canine_IL31); assay: cell-based or functional assay
[5] = biological target: T4, wildtype feline IL-31 protein (Feline_IL31_wildtype) (feline); assay: cell-based or functional assay
T4 chain: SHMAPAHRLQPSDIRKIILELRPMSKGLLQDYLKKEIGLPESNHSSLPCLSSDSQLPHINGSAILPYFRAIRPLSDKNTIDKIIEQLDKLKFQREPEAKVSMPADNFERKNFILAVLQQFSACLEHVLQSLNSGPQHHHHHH

[6] = biological target: T4, wildtype feline IL-31 protein …; assay: cell-based or functional assay
[7] = biological target: T5, human IL-31 (human, UniProt Q6EBC2 24-164); assay: SPR (Biacore), IL-31 surface, single antibody concentration
T5 sequence: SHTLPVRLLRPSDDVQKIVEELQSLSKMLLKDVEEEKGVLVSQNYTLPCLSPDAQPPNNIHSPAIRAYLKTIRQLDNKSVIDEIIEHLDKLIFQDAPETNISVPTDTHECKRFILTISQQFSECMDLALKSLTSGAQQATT
Protocol: as §1

[8] = biological target: T4, wildtype feline IL-31 protein …; assay: SPR (Biacore), IL-31 on chip, 1:1 fit
Method in brief: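 IL-31 was amine-coupled (NHS/EDC) to the chip at 5 μg/mL and quenched with ethanolamine, and candidate mAbs were flowed over it as analytes. Binding curves were fitted to a 1:1 model.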

B1: ZIL69 (recombinant fully canine antibody) (antibody, V domains shown)
VH: EVQLVESGGDLVKPAGSLRLSCVASGFTFSSYAMKWVRQAPGKGLQWVATINNDGTRTGYADAVRGRFTISKDNAKNTLYLQMDSLRADDTAVYYCTKGNAESGCTGDHCPPYWGQGTLVTVSS
VL: SSVLTQPPSVSVSLGQTATISCSGESLNKYYAQWFQQKAGQAPVLVIYKDTERPSGIPDRFSGSSAGNTHTLTISGARAEDEADYYCESAVSSETNVFGSGTQLTVLR
notes: also called CAN-ZIL69
With B1 as the binder, how does the ELISA OD [1] read?
The ELISA OD was 0.92 OD.

Does B1 bind [2]?
Result: no binding

B2: mouse:feline 15H05 chimera (antibody)
heavy: QVQLQQSAAELARPGASVKMSCKTSGYTFTSYTIHWIKQRPGQGLEWIGNINPTSGYTENNQRFKDKTTLTVDRSSNTAYLQLHSLTSEDSAVYFCARWGFKYDGEWSFDVWGAGTTVTVSSASTTAPSVFPLAPSCGTTSGATVALACLVLGYFPEPVTVSWNSGALTSGVHTFPAVLQASGLYSLSSMVTVPSSRWLSDTFTCNVAHPPSNTKVDKTVRKTDHPPGPKPCDCPKCPPPEAAGAPSIFIFPPKPKDTLSISRTPEVTCLVVDLGPDDSDVQITWFVDNTQVYTAKTSPREEQFNSTYRVVSVLPILHQDWLKGKEFKCKVNSKSLPSPIERTISKAKGQPHEPQVYVLPPAQEELSRNKVSVTCLIKSFHPPDIAVEWEITGQPEPENNYRTTPPQLDSDGTYFVYSKLSVDRSHWQRGNTYTCSVSHEALHSHHTQKSLTQSPGK
light: DIQMNQSPSSLSASLGDTITVTCRASQGISIWLSWYQQKPGNIPKVLINKASNLHIGVPPRFSGSGSGTHFTLTITSLQPEDIATYYCLQSQTYPLTFGGGTKLEINRSDAQPSVFLFQPSLDELHTGSASIVCILNDFYPKEVNVKWKVDGVVQNKGIQESTTEQNSKDSTYSLSSTLTMSSTEYQSHEKFSCEVTHKSLASTLVKSFQRSECQRE
notes: Mouse variable regions on feline IgG constant regions; made in HEK 293 cells; also called 15H05 mouse feline chimera
B2 was tested. Which Kd [3] did it give?
Its Kd is 0.0129 nM.

What about the koff [3] of the same binder?
Its koff is 1.62e-07 s⁻¹.

What about the kon [3] of the same binder?
The kon was 12600 M⁻¹ s⁻¹.

And the IC50 against canine IL-31 (pSTAT3; cell type not stated for this pair of values) [4]?
The IC50 against canine IL-31 (pSTAT3; cell type not stated for this pair of values) was 28.6 µg/ml.

And the “IC50, inhibition of feline IL-31-induced STAT3 phosphorylation, canine DH82 cells” value [5]?
The value was 5.59 µg/mL.

And the “IC50, inhibition of feline IL-31-induced STAT3 phosphorylation, feline FCWF4 cells” value [5]?
Its value is 3.25 µg/mL.

What about the “IC50 against feline IL-31 induced pSTAT3 signaling in feline FCWF4 cells, relative to the mouse:feline 11E12 chimera” value [6] of the same binder?
Its value is about 2 fold.

B3: ZIL8 (recombinant fully canine antibody) (antibody, V domains shown)
VH: EVQLVESGGDLVKPAGSLRLSCVASGFTFSDYAMSWVRQAPGRGLQWVAGIDSVGSGTSYADAVKGRFTISRDDAKNTLYLQMFNLRAEDTAIYYCASGFPGSFEHWGQGTLVTVSS
VL: QSVLTQPASVSGSLGQKVTISCTGSSSNIGSGYVGWYQQLPGTGPRTLIYYNSDRPSGVPDRFSGSRSGTTATLTISGLQAEDEADYYCSVYDRTFNAVFGGGTHLTVL
notes: also called CAN-ZIL8; copies: 2 + 2
Which results are given for B3?
binding result [7]: no binding; binding result [2]: no binding

B4: ZTS-927 (antibody)
heavy: QVLLVQSGAEVRTPGASVKIFCKASGYSFTSYTIHWLRQAPAQGLEWMGNINPTSGYTENNQRFKDRLTLTADTSTNTAYMELSSLRSADTAMYYCARWGFKYDGEWSFDVWGAGTTVTVSSASTTAPSVFPLAPSCGTTSGATVALACLVLGYFPEPVTVSWNSGALTSGVHTFPAVLQASGLYSLSSMVTVPSSRWLSDTFTCNVAHPPSNTKVDKTVRKTDHPPGPKPCDCPKCPPPEMLGGPSIFIFPPKPKDTLSISRTPEVTCLVVDLGPDDSDVQITWFVDNTQVYTAKTSPREEQFNSTYRVVSVLPILHQDWLKGKEFKCKVNSKSLPSPIERTISKAKGQPHEPQVYVLPPAQEELSRNKVSVTCLIKSFHPPDIAVEWEITGQPEPENNYRTTPPQLDSDGTYFVYSKLSVDRSHWQRGNTYTCSVSHEALHSHHTQKSLTQSPGK
light: EIQMTQSPSSLSASPGDRVTITCRASQGISIWLSWYQQKPGNIPKVLINKASNLHIGVPSRFSGSGSGTDFTLTISSLEPEDAATYYCLQSQTYPLTFGGGTKLEIKRSDAQPSVFLFQPSLDELHTGSASIVCILNDFYPKEVNVKWKVDGVVQNKGIQESTTEQNSKDSTYSLSSTLTMSSTEYQSHEKFSCEVTHKSLASTLVKSFQRSECQRE
notes: Felinized 15H05 from a single GS plasmid
How did the “IC50, inhibition of canine IL-31-induced STAT3 phosphorylation, canine DH82 cells” value [4] turn out when B4 was run?
Its value is 23.2 µg/mL.

And the “IC50, inhibition of canine IL-31-induced STAT3 phosphorylation, feline FCWF4 cells” value [4]?
Its value is 39.6 µg/mL.

What about the “IC50, inhibition of feline IL-31-induced STAT3 phosphorylation, canine DH82 cells” value [5] of the same binder?
Its value is 1.57 µg/mL.

What about the “IC50, inhibition of feline IL-31-induced STAT3 phosphorylation, feline FCWF4 cells” value [5] of the same binder?
Its value is 5.26 µg/mL.

What about the Kd [8] of the same binder?
The Kd was 0.614 nM.

What about the koff [8] of the same binder?
Its koff is 2.3e-05 s⁻¹.

And the kon [8]?
The kon was 37400 M⁻¹ s⁻¹.

B5: ZIL9 (recombinant fully canine antibody) (antibody, V domains shown)
VH: EVQLVESGGDLVKPPGSLRLSCVASGFTFSSYDMTWVRQAPGKGLQWVADVNSGGTGTAYAVAVKGRFTISRDNAKKTLYLQMNSLRAEDTAVYYCAKLGVRDGLSVWGQGTLVTVSS
VL: SSVLTQPPSVSVSLGQTATISCSGESLNEYYTQWFQQKAGQAPVLVIYRDTERPSGIPDRFSGSSSGNTHTLTISGARAEDEADYYCESAVDTGTLVFGGGTHLAVLR
How did the ELISA OD [1] turn out when B5 was run?
The ELISA OD was 0.73 OD.

B6: ZIL171 (recombinant fully canine antibody) (antibody, V domains shown)
VH: EVQLVESGGDLVKPAGSLRLSCVASGFTFRTYVMNWVRQAPGKGLQWVASINGGGSSPTYADAVRGRFTVSRDNAQNSLFLQMNSLRAEDTAIYFCVVSMVGPFDYWGHGTLVTVSS
VL: SSVLTQPPSVSVSLGQTATISCSGKSLSYYYAQWFQQKAGQAPVLVIYKDTERPSGIPDRFSGSSSGNTHTLTISGARAEDEADYYCESAVSSDTIVFGGGTHLTVLR
notes: also called CAN-ZIL171
Does B6 bind [2]?
Result: no binding

B7: ZIL11 (recombinant fully canine antibody) (antibody, V domains shown)
VH: EVQLVESGGDLVKPAGSLRLSCVASGFTFRTYVMNWVRQAPGKGLQWVASINGGGSSPTYADAVRGRFTVSRDNAQNSLFLQMNSLRAEDTAVYFCVVSMVGPFDYWGQGTLVTVSS
VL: SSVLTQPPSVSVSLGQTATISCSGESLSNYYAQWFQQKAGQAPVLVIYKDTERPSGIPDRFSGSSSGNTHTLTISGARAEDEADYYCESAVSSDTIVFGGGTHLTVL
notes: also called CAN-ZIL11; copies: 2 + 2
For B7, which ELISA OD [1] is on record?
The ELISA OD was 0.33 OD.

Does B7 bind [7]?
Result: no binding

Does B7 bind [2]?
Result: no binding

B8: Feline 11E12 1.1 (antibody, V domains shown)
VH: QVLLVQSGAEVKKPGASVKIFCKASGYSFTYYDINWLRQAPEQGLEWMGWIFPGDGGTKYNETFKGRLTLTADTSTNTVYMELSSLRSADTAMYYCARGGTSVIRDAMDYWGQGALVTVSS
VL: EIQMTQSPSSLSASPGDRVTITCRASESVDNYGISFMHWYQQKPGKVPKLLIYRASNLESGVPSRFSGSGSGTDFTLTISSLEPEDAATYYCQQSNKDPLTFGQGT
notes: Variable chains were subcloned into plasmids with 'the respective feline heavy or kappa constant region'; Made in HEK 293 cells; also called Felinized 11E12 1.1; felinized 11E12
What does the source list for B8?
koff [3]: 0.000141 s⁻¹; kon [3]: 185000 M⁻¹ s⁻¹; Kd [8]: 22.2 nM; koff [8]: 0.000444 s⁻¹; kon [8]: 20000 M⁻¹ s⁻¹; potency against feline IL-31 in the feline FCWF assay (pSTAT3) [6]: ~2 fold

B9: ZIL1 (recombinant fully canine antibody) (antibody, V domains shown)
VH: EVQLVESGGDLVKPGGSLRLSCVASGFTFSSYGMSWVRQAPGKGLQWVAHINSGGSSTYYADAVKGRFTISRDNAKNTLYLQMNSLRAEDTAVYYCVEVYTTLAAFWTDNFDYWGQGTLVTVSS
VL: QSVLTQPTSVSGSLGQRVTISCSGSTNNIGILAATWYQQLPGKAPKVLVYSDGNRPSGVPDRFSGSKSGNSATLTITGLQAEDEADYYCQSFDTTLDAYVFGSGTQLTVLR
With B9 as the binder, how does the ELISA OD [1] read?
The ELISA OD was 0.92 OD.
